Data reported in patent publication US20240228612A1 (SICHUAN KELUN BIOTECH BIOPHARMACEUTICAL, published 2024).
Substitutions are numbered along the chain they refer to. Blank lines part the entries; values can stand above or below the binder they belong to.

Columns and labels:
[1] = target: T1, human Nectin-4 on cell membrane surface (human, UniProt Q96NY8 32-510); test: flow cytometry on T47D cells
T1 construct: whole, on cells; also called A549-Nectin-4; T24-Nectin-4
T1 sequence (looked up): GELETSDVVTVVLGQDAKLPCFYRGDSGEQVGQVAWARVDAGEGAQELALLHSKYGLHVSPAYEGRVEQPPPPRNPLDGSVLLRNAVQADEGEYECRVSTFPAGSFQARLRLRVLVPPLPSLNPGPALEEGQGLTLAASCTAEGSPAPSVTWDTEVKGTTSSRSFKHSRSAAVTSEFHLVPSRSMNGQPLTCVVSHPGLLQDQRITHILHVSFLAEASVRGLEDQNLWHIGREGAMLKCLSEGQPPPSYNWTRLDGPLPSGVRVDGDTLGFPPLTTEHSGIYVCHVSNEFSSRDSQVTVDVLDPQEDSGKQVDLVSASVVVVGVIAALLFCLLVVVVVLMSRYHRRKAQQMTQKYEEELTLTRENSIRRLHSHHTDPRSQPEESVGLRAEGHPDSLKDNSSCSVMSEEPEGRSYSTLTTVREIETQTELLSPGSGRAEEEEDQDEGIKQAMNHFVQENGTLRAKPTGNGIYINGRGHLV
Method: The specific steps were as follows: T47D cells were digested, resuspended by centrifugation, and washed twice with PBS; the cells were resuspended in PBS (containing 1% BSA), and spread into a 96-well tip-bottom plate at 3×10⁵ cells/well, with a volume of 50 μl per well; 50 μL of the antibody to be tested was added to each well, starting at a final concentration of […], 4-fold gradient dilution, a total of 10 concentration points; Human IgG was used as a negative control; after being mixed well, the resulting mixture was reacted in the dark at 4° C. for 1 hour; washing was performed 3 times with PBS, FITC-labeled anti-human Fc secondary antibody (brand: BioLegend, product number: 409322) was added, incubated at 4° C. for 0.5 hours in the dark; washing was performed 3 times with PBS, and detection was carried out using a flow cytometer (flow cytometer brand: Beckman, model: Cytoflex).

[2] = target: T2, human Nectin-2 antigen (human, UniProt Q92692 32-360, limits assumed); test: ELISA, coated human Nectin-2, anti-human-HRP
T2 sequence (looked up): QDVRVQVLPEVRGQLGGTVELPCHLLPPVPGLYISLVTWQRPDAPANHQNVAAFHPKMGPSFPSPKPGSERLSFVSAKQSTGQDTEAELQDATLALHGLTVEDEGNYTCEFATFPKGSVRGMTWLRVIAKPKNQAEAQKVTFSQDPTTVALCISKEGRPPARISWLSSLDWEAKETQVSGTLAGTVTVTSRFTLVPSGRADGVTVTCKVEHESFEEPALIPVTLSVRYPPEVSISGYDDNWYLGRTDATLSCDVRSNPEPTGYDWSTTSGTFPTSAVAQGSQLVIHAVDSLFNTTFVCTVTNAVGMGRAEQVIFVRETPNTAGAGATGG
Method: The Nectin family includes members of Nectin-1, Nectin-2, Nectin-3 and Nectin-4, and the members share a sequence identity of about 25%, but have similar structure and function. […] The specific steps were as follows: human Nectin-1, Nectin-2, Nectin-3 and Nectin-4 antigens were diluted to 1 μg/mL with CBS coating solution, coated on an ELISA plate at 100 μL per well, and standed overnight at 4° C.; the liquid in the well was discarded on the next day, and washing was performed once with 300 μL of PBS; 100 μL of PBS (containing 2% BSA) was added, and blocking was performed at 37° C. for 2 hours; 31HZ, 56HZ, 74HZ and Enfortumab antibodies were diluted with PBS (containing 2% BSA), 100 μL was taken and added to the corresponding well, incubated at 37° C. for 2 hours; washing was performed 3 times with 300 μL of PBST; HRP-labeled goat anti-human secondary antibody was diluted at a ratio of 1:10000 with PBS (containing 2% BSA), 100 μL was taken and added to the corresponding well, incubation was performed at 37° C. for 1 hour; washing was performed 5 times with 300 μL of PBST; 100 μL of TMB color development solution was added to the corresponding well, and color development was performed at room temperature for 5-20 minutes; 50 μL of 2N H₂SO₄ was added for stopping, a microplate reader was used for collecting readings at OD450 nm, and the data were imported into Graphpad Prism for curve fitting.

[3] = target: T3, human Nectin-4 protein (human, UniProt Q96NY8 32-349); test: competitive ELISA, coated Nectin-4; competitor biotin-labeled Nectin-1-hFc
T3 construct: Purified protein used for coating in ELISA and as analyte in Octet; also called human Nectin-4 antigen
T3 sequence (looked up): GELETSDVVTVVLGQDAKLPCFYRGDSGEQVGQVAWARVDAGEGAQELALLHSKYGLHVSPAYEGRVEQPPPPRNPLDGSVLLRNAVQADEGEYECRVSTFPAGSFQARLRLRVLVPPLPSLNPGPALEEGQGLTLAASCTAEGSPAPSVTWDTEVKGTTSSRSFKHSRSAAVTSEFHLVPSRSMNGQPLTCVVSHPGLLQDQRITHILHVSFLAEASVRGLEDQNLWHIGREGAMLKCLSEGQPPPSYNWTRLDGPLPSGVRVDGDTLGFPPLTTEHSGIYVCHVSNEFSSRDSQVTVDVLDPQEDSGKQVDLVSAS
Method: Human Nectin-4 is linked to another Nectin-4 molecule or Nectin-1 molecule through the IgV domain. Because 31HZ, 56HZ and 74HZ all bind to the IgV domain of Nectin-4, the competitive activity of the three antibodies was detected by competitive ELISA. The specific steps were as follows: Nectin-4 protein was diluted to 2 μg/mL with CBS coating solution, 100 μL per well, and incubated at 37° C. for 2 hours; washing was performed once with 300 μL PBST, PBS (2% BSA) was then added, 100 μL per well, and incubation was performed at 37° C. for 2 hours; biotin-labeled Nectin-1-hFc was diluted with PBS (2% BSA) to 20 μg/mL; the antibody to be detected was diluted with PBS (2% BSA), wherein the dilution of 31HZ and 74HZ was started from 3.73 μg/mL, 3-fold dilution, and 9 concentration points, the dilution of 56HZ was started from 1.25 μg/mL, 2-fold dilution, and 10 concentration points; the above two diluted solutions were mixed well in equal volumes, and then added to the corresponding well at 100 μL/well, and incubation was performed at room temperature for 2 hours; washing was performed three times with 300 μL PBST; HRP-streptavidin was diluted with PBS (2% BSA) at a ratio of […], and added to the corresponding well at 100 μL/well, incubation was performed at room temperature for 1 hour; washing was performed five times with 300 μL of PBST; 100 μL of TMB was added to the corresponding well, color development was performed at room temperature for 10 minutes, and then terminated by adding 50 μL of 2N H₂SO₄, and a microplate reader was used for collecting readings at 450 nm.

[4] = target: T3, human Nectin-4 protein; test: ELISA, coated human Nectin-4, anti-human-HRP
Text: The Nectin family includes members of Nectin-1, Nectin-2, Nectin-3 and Nectin-4, and the members share a sequence identity of about 25%, but have similar structure and function. […]

- EC50 [1]: 0.0223 µg/mL
- binding result [2]: no binding (tested: 10000 ng/mL)
- IC50 [3]: 0.0272 µg/mL
B1: anti-human Nectin-4 humanized monoclonal antibody 74HZ (antibody, human IgG1, kappa, V domains shown)
VH: QVQLVQSGAEVKKPGSSVKVSCKASGYTFINYWMNWVRQAPGQGLEWIGMIHPSDSATRLNQSFQGRVTLTVDKSTSTAYMELSSLRSEDTAVYYCARWGNFYTVNAWYYFDYWGQGTLVTVSS
VL: DIVITQSPDSLAVSLGERATINCKSSQTLLNSNTQKNYLAWYQQKPGQSPKLLFYFASTRESGVPDRFSGSGSGTDFTLTISSLQAEDVAVYFCQQHYSTPLTFGQGTKLEIKR
notes: Human IgG1 heavy chain constant region, human kappa light chain constant region; expressed in CHO-E cells

- EC50 [1]: 0.0123 µg/mL
- binding result [2]: no binding (tested: 10000 ng/mL)
- IC50 [3]: 0.0276 µg/mL
B2: anti-human Nectin-4 humanized monoclonal antibody 31HZ (antibody, human IgG1, kappa, V domains shown)
VH: QVQLVQSGAEVKKPGSSVKVSCKASGYTFTDYWMNWVRLAPGQGLEWIGMIHPSDSETRLNQKFQGRVTLTVDKSTSTAYMELSSLRSEDTAVYYCARWDFRIYYAMDYWGQGTLVTVSS
VL: B1 VL with I2V, T28S, S32T, T34S, F54V, Q106G, L110V
notes: as for B1

- binding result [2]: no binding
- EC50 (read off the curve) [4]: ~0.006 µg/mL
- IC50 [3]: 0.0269 µg/mL
B3: anti-human Nectin-4 humanized monoclonal antibody 56HZ (antibody, human IgG1, kappa, V domains shown)
VH: QVQLQESGPGLVKPSQTLSLTCTVSGYFNSITSDYDWHWIRHHPGKGLEWMGYISFSGRTYYNPSLKSRVTISHDTSKNQFSLKLSSVTAADTAVYYCARGNYDGFDYWGQGTLVTVSS
VL: DIVLTQSPATLSLSPGERATLSCRASQNIGTSIHWYQHKPGQSPRLLIKFASESISGIPARFSGSGSGTDFTLTISSLEPEDFAVYYCQQSKSWPTYTFGGGTKVEIKR
notes: as for B1
